Laboratory results from the DeepSol protein solubility set.

Test: soluble on expression in E. coli; label from the status in PepcDB or PDB records

Row | Sequence | soluble on expression in E. coli
1 | YEFKKRNNIPMFFGIGNVTELFDVDSNGVNASIAAIGQEIGGNILFTPEASKKCKFSIKELKTASKMLFLAKKRNSLPKDVGYDLINYKDKKFDEEFELEDVKIIEAFENEKQLLDRGSFKIRVDRKNKEINATYYVHNQPKLIIRGNDPKKIYETALRENLITKMDHAAYFGKELRNAELALKLGKKYNQDFELFYNEFWN | not soluble
2 | MAHHHHHHMGWFRSSASPEAGTATAEAPAAAAEHGSQHRQPQPEANSPAPLTEAEQLDLLVAGARLDDTEAQDTARFLGSNRRHMYADGLLSCAAYTFSGLHHIQGQSSALTLLTMWTVGTTFLVDVAERKYLQESLQGTLRTAKTTSEAEKPLLLDQPPHNATPASTPRKAAVVPAMPTSSDSLSSAIKKPAPRDKEKLAEQQRKVFLTQAVASWLWMLASFQQFKVHKRLKWCGYSSWMGLGCAGYYTTRHLYNLLVK | soluble
3 | IFNGRPAQKGTTPWIAMLSHLNGQPFCGGSLLGSSWIVTAAHCLHQSLDPKDPTLRDSDLLSPSDFKIILGKHWRLRSDENEQHLGVKHTTLHPQYDPNTFENDVALVELLESPVLNAFVMPICLPEGPQQEGAMVIVSGWGKQFLQRFPETLMEIEIPIVDHSTCQKAYAPLKKKVTRDMICAGEKEGGKDACAGDSGGPMVTLNRERGQWYLVGTVSWGDDCGKKDRYGVYSYIHHNKDWIQRVTGVRN | soluble
4 | MKQQEEHNNKIDLLEKQQAQLKSQLETIQKQQTGIISSTKTLTHVIKSVKDQQNTFIFTEFNPAKTKYFILNNGSVALAGRVLSIDATENGSVIHISLVNLLSTPISNIGFNATWGGEKPVDAKEFARWQQLLFNTSMKSTLKLLPGQWQDINLTLKGVSPNNLGYLKLAINMENIQFDNLPSAENRQKRSKK | not soluble
5 | RRVVVTGLGMVTPLGRGVETTWRRLIDGECGIRGLTLDDLKMKSFDEETKLYTFDQLSSKVAAFVPYGSNPGEFDEALWLNSKAVANFIGYAVCAADEALRDAEWLPTEEEEKERTGVSIGGGIGSICDIVEAAQLICEKRLRRLSPFFIPKILVNMASGHVSMKYGFQGPNHAAVTACATGAHSIGDATRMIQFGDADVMVAGGTESSIDALSVAGFSRSRALSTKFNSSPQEASRPFDCDRDGFVIGEGSGVIVLEEYEHAKRRGAKIYAELCGYGMSGDAHHITQPPEDGKGAVLAMTRALRQSGLCPNQIDYVNAHATSTPIGDAVEARAIKTVFSEHATSGTLAFSSTKGATGHLLGAAGAVEAIFSILAIHHGVAPMTLNVKNPDPIFDKRFMPLTTSKKMLVRTAMSNSFGFGGTNASLLFASI | soluble
6 | MGSDKIHHHHHHMAEQENSKDLISVLWSGADVLRSKMDANEYKNYLLGIVFYKYLSDSFLIRVYDLINDEKPESLKVALEAYKNELKGEYANDLLDELKQDRKYVIEPELTYTCFAEDARNNCFNREQLQKAFNNIEQSGELFVDLFSDIDLYSSRLGAGDQKQSDTIAELIKVIDQADLLNSDGEILGDAYEYLIGQFASETGKKAGEFYTPQAVSKILTRIAITGQENVKGLSIYDPCMGSGSLLLNAKRYYKGDTNYIKYYGQELNMSTYNLARMNMFLHDVAAENQNLHHGDTLDADWPTGEETDFHMVLMNPPYSAKWSAASGFLQDERFSEYGVLAPKSKADYAFLLHGLYHLKSNGTMAIVLPHGVLFRGAAEGKIREKLLRSGNIYAVIGLPANLFYNTSIPTCIVVLKKHRDGRDVLFIDASKKFIKGKKQNEMSDEHIDEVMDLYNRRETVDKESYLASFDDIEKNDFNLNIPRYVDNFEKEEEVDINGLLEDMQKTDDEIGKVEGEFVNLLKDLTSSDENIMASLNRYIDMIEG | not soluble
7 | SVFDIYKIGVGPSSSHTVGPMKAGKEFIDDLRAMGKLRDITKITVDVYGSLSLTGKGHHTDIAIIMGLAGNSPEKVDIDSIPGFIARVEETERLPVGMHCHTVSFPREGGMNFHKTNLELHENGMQIHAWIDDEKVYSKTYYSIGGGFIVDEENFGK | soluble
8 | MGSDKIHHHHHHMNIHYYLIINEQASSGNGRKVARKVIQQLKQQELKYTALYTDYAGHEKELTKELAETTLLPWSEDLDVSTFPILVVLGGDGTLHNVINSLLPYDSTIPLSYIPCGSGNDFARGVGLSRNIDKALHQILRTRRPKEIQTIHYVEANQEEIGLATNNVGLGLDAAIVEKTNESSSKKALNKFKLGSLSYISSIIHVFFRQKGFPILVEMNGKQYTFNRAFLCTVTNHPYFGGGVSIMPTANPRKAVVDLVVVERINIFKILWLIFLLLRQKQGKSKHFHHFQSSKIRIVSTIPQTIHADGEILGKRSIDMVYTTQKRLFWF | not soluble
9 | SNAMWKRMTAKAEGLYIADTKSFVTKQMDKLDFDYGGIPGDLHFGLTKKAGAREPMFSRGTEIFNRRQISIVSIEECNEIALKMGVPRILPEWLGANVAVSGMPDLTSLKEGSRIIFPSGAALLCEGENDPCIQPGEVIQSYYPDQPKLASAFVRHALGIRGIVCIVERPGAVYTGDEIEVHSYQRKVKRKAERV | soluble
10 | MGSDKIHHHHHHMEFSLERDEARLVEIASIQETYGTFLIEHLDEKTAIISGSWDPLRRCAFVNYVGLIVGEAEDLSAFQEGLPAGKFYIRYRDIDGDKPMSEAAIGDMLKARGRVSFRDPDYVVRVVHHGIFYVTKVVYERDKKQFIERKAPRRPFFSPVSMDPKYARFLVNTAHVRENQLLIDPFCGTGGILIEAALMGIRVIGNDVALSMAAGARTNLKHFHVEDFHIYNMDVSDLPVRDVDGIATDMPYGRNSYASEDLEVLYERSFRKFHEMLKPHGYASFVVSDPDLAELARPFFNIVHDVPVYQHRSLTRHFITAMRKD | not soluble
11 | SLNVVLIVEDEILEQEFLKTMVLGELSPEDKVLTTESGIQAVQLAKQHRPNIIIMDLMIAEVDGLTAIQDIRKFLPNACITILSAYSDFSYAQKAINLKVFEYLLKPVKPSAFKEIFKKMLEIAHEESMISEPIEKTFLPLQEEHQSFIQESVTYIQEHFKEKLTLEMTASRVFMNPKYFSRVFKKEMGISFTEFIIQLRIQYACRLLETTNYPAYRISSECGFSDPSYFNRVFCAQLNMTPQTYRKNSQAQQHEG | soluble
12 | METKKIAGVLVTMVAPFENHMANGGEKLFGNASSIKRRPDGRVYVSGQMQRHVLFSAIDRLNHLDKAKGTTFVSNGDGITNLIEIDLRADLGGFMHTNKGDYSDRRIAPLSVTPATALDTSSVGRDLLVRIRFDKSSDAKNQALATREYSEQDKMNMNFFLDITSVGVSKSFVYKDGLNLGTKYFKHITDDEKKRRVKLFLEATRIMNDYANQARNAVCGEPEKVLIVFDDRLSRKACRYYTVGEKEQANIIKELDQYQVKYFVGDDASDYSVADAYRDAMNYLDKATLVDFAEGEEIMTFAEAFECKEKEPQEKKSKKGKDKATSAQNLFAEQQDDQ | not soluble
13 | MGSDKIHHHHHHMGMSSDLIKPRRPSTSGCAIHCHDCSMEALCIPFTLNNDELDKLDSIIERKKPIQKGDLIFKSGDVLKSLYAIRSGTIKSYTITEQGDEQITGFHLAGDVIGFDGIHAQRHQSFAQALETSMVCEIPYDTLDDLSGSMPKLRQQIMRLMSNEIMSDQEMILLLSKKNAEERLAAFINNLANRFGNRGFSPHEFRLTMTRGDIGNYLGLTVETISRLLGRFQKSGLIEVKGKYISIIDHSALSTLAGNARIAT | not soluble
14 | MRFSNDHPFNQMRLKLTTELLLDLGSLKPEHIITPRIATDEELSLIHSYDYIQAIRRASHGILNLQEAKKYGLDGDDTLQFRRMHQHSARIVGGALNLADAIMDKSVKNGCHLGGGLHHSLPGRANGFCIYNDVAITIAYLIKHYNQRVLCIDTDAHHGDGTQWSFYTEDQALIYSIHETGKFLFPGSGHYTERGNEQGFGYTVNIPLEPYTEDSSYLEVFKQTIEPIIASFKPDIIVSVHGVDVHYLDPLTHMSCTLNTLYQIPYIIKSLADTYTNGKVMMFGGGGYNIWKVVPRAWSHVFLALIEAPPPLEHHHHHH | soluble
15 | GSADAPRDRHRTIVVGGDRDYPPYEFIDQNGKPAGYNVELTRAIAEVMGMTVEFRLGAWSEMFSALKSGRVDVLQGISWSEKRARQIDFTPPHTIVYHAIFARRDSPPAAGLEDLRGRKVALHRDGIMHEYLAERGYGKDLVLTPTPADALRLLAAGGCDYAVVAMVPGMYIIRENRLTNLVPVARSIAAQRYGYAVRQGDAELLARFSEGLAILRKTGQYEAIRAKWLGVLEP | soluble
16 | MHIKPIIQGVVARSAHPYGCEQAVLQQIQYVKQANPIKSGPKRVLILGASSGFGLAARIALTFGGAQADTIGVSFERAPSETQTGSAGYYNNLFFKQHAEQAGRIAVNLEGDVFSVDMREQVIEAIETYFEGEVDLIIYSIASGMRRKPRSEKADPEFWRSAIKPIGEAVSGATLLLENDTWIETTLQPASEEEIEGTLRVMGGDDWENWIDTLINAESLAEGCKTIAFSYMGPDVTHPIYLDGTLGRAKIDLHQTSHALNLKLANFDGGAYAVVCKALVTKASVFIPGLSPYLLALYQVMKNKGTHEGCIEQMQRLFSDKLYGHSRIPLDSERLIRMDDWEMNPDTQVQVRERLQQMNASNFQQLGDYAGFKREFMQLNGFEFDQIDYSQSV | not soluble
17 | MEYRIERDTMGEVRVPADKYWGAQTQRSLENFRIGTDRFRMPLEIIRAYGMLKKAAARANLELGELPEEIAKAIIQAAEEVVQGKWDDHFPLVVFQTGSGTQTNMNVNEVIANRASEILGKPLGSKYVHPNDHVNRGQSSNDTFPTAMYVAVALALHQRLYPAVEGLIRTFTAKAQAFDQIVKVGRTHLMDAVPITLGQEIGSWAAQLKTTLAAVKEMEKGLYNLAIGGTAVGTGLNAHPRFGELVAKYLAEETGLPFRVAENRFAALAAHDELVNVMGAIRTLAGALMKIGNDVRWLASGPYAGIGEITIPANEPGSSIMPGKVNPTQVEALTMVVVRVYGNDHTVAFAGSQGNFQLNVYKPVMAYSTLESINLLADAVASFDAHLAQGIEPNLERIEEHLQKNPMLATALNKAIGYDKAAEIVKKALKEKKTLKQAALELGYLTEEEFDRIVVPMRLAKPHEGA | soluble
18 | MAHHHHHHMLRGTRGFLAVSPGVGIAPETTPVKYTPMMLNIQNMMWWNGKRNLYRATYREKTWYEISRTGAFTKGRRPVMRQKYSREALQAALAMVPPGFEVADVPRPPQRILAQSEGIVGRWYSNYWTLHSMRYQCLLAGVEWPLGERQRPRTNYDEPFFFADFEESKAIQDYRSRWINVNRSLVGMTKRMKEAEEEARYMQFRKLQDTFWSNRKVLVNRVKSMYNQGARTSAKDMPIKTINIKAFLSE | not soluble
19 | SEPIYEEYLANHGTIVKPYYWLSFSLDCSNCPYHIRTGEEARVSLTEFCQIFGFPYGTTFPQTKHLTFYELKTSSGSLVQKGHASSCTGNYIHPESMLFEMNGYLDSAIYNNDSIRHIILYSNNSPCNEANHCCISKMYNFLITYPGITLSIYFSQLYHTEMDFPASAWNREALRSLASLWPRVVLSPISGGIWHSVLHSFISGVSGSHVFQPILTGRALADRHNAYEINAITGVKPYFTDVLLQTKRNPNTKAQEALESYPLNNAFPGQFFQMPSGQLQPNLPPDLRAPVVFVLVPLRDLPPMHMGQNPNKPRNIVRHLNMPQMSFQETKDLGRLPTGRSVEIVEITEQFASSKEADEKKKKKGKK | soluble
20 | TSRKLNDAANERLAAQQDLRNAATLIVRDARMAGGFGCFNMSEHPATDVIPDTTQQNSPFSLKRNGIDKLIPIAESSNINYQNFFQVGSALIFQYGIDD | not soluble
